T1: TRIB2(53–343) (human, UniProt Q92519 53-343)
T1 sequence (looked up): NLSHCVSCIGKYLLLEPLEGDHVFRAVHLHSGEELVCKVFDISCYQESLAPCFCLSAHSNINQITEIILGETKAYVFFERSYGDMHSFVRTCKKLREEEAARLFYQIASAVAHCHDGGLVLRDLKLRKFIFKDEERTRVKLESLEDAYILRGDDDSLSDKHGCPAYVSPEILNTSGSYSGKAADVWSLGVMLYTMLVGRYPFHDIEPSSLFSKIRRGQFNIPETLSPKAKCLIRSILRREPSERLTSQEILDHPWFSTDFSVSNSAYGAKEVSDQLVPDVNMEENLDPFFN

T2: TRIB2(2–343) (human, UniProt Q92519 2-343)
T2 sequence (looked up): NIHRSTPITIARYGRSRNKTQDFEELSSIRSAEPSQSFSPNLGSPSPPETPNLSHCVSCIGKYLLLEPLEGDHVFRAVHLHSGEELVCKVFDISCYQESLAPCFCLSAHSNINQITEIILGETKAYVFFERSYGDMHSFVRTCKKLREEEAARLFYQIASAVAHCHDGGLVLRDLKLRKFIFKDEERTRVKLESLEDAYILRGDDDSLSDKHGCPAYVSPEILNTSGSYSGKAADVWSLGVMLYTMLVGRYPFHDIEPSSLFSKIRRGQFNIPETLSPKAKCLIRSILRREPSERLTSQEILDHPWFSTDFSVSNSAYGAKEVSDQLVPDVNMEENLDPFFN


Columns and labels:
TRIB2(53–343) [1] = target: T1, TRIB2(53–343); test: ITC
[2] = target: TRIB2-Nb4.103 complex (human) (UniProt Q92519); test: ITC
TRIB2(2–343) = target: T2, TRIB2(2–343); test: ELISA
TRIB2(53–343) [3] = target: T1, TRIB2(53–343); test: SEC-SAXS
TRIB2(53–343) [4] = target: T1, TRIB2(53–343); test: SEC-SAXS; remark: listed apart in the source

Kd (TRIB2(53–343) [1]) [nM] | stoichiometry N (TRIB2(53–343) [1]) | binding result (TRIB2(2–343)) | further results | Molecule
9000 |  |  | fold decrease in affinity against TRIB2 alone [2]: 3 fold | MBP-C/EBPa (from UniProt P49715 1-358) (domain or fragment)
54 | 1 |  |  | Nb4.105 (VHH) VHH: QVQLQESGGGLVQAGGSLRLSCAASGNIFDNDPMGWYRQAPGKERELVAAIAYGATTYYADSVKGRFTISRDNAKNTVYLQMNSLKPEDTAVYYCAAYGIDDSPKVYSLRYWGQGTQVTVSS
 |  | binds |  | biotinylated Nb4.105 (Nb-Avi) (VHH, biotin on the Avi-tag) VHH: QVQLQESGGGLVQAGGSLRLSCAASGNIFDNDPMGWYRQAPGKERELVAAIAYGATTYYADSVKGRFTISRDNAKNTVYLQMNSLKPEDTAVYYCAAYGIDDSPKVYSLRYWGQGTQVTVSS
27 | ~0.5 |  | stoichiometry N (TRIB2(53–343) [3]): 2 TRIB2 per nanobody | Nb4.103 (VHH) VHH: QVQLQESGGGLVQAGGSLRLSCAASGNISAQAYMGWYRQAPGKERELVAGISYGATTYYADSVKGRFTISRDNAKNTVYLQMNSLKPEDTAVYYCAVISAGGGESIGYHFYWGQGTQVTVSS
 |  | binds |  | biotinylated Nb4.103 (Nb-Avi) (VHH, biotin on the Avi-tag) VHH: QVQLQESGGGLVQAGGSLRLSCAASGNISAQAYMGWYRQAPGKERELVAGISYGATTYYADSVKGRFTISRDNAKNTVYLQMNSLKPEDTAVYYCAVISAGGGESIGYHFYWGQGTQVTVSS
 |  | binds |  | biotinylated Nb4.101 (Nb-Avi) (VHH, biotin on the Avi-tag) VHH: QVQLQESGGGLVQAGGSLRLSCAASGNISDYLYMGWYRQAPGKERELVAGISYGANTYYADSVKGRFTISRDNAKNTVYLQMNSLKPEDTAVYYCAVFDASRTPILTYWGQGTQVTVSS
57 | ~0.5 |  | stoichiometry N (TRIB2(53–343) [4]): 1 TRIB2 per nanobody | Nb4.101 (VHH) VHH: QVQLQESGGGLVQAGGSLRLSCAASGNISDYLYMGWYRQAPGKERELVAGISYGANTYYADSVKGRFTISRDNAKNTVYLQMNSLKPEDTAVYYCAVFDASRTPILTYWGQGTQVTVSS

From article doi:10.1101/2022.04.29.489987 (bioRxiv, 2022)
